± gives the uncertainty stated by the source.
Assay: self-splicing fitness, log relative to wild type (ln ratio); higher = more splicing; Tetrahymena group I intron in knt gene, E. coli kanamycin selection, DiMSum; sequences stand for … in CUCUCU…GGAGGGAAAAGUUAUCAGGCAUGCACCUGGUAGCUAGUCUUUAAACCAAUAGAUUGCAUCGGUUUAAAAGGCAAGACCGUCAAAUUGCGGGAAAGGGGUCAACAGCCGUUCAGUACCAAGUCUCAGGGGAAACUUUGAGAUGGCCUUGCAAAGGGUAUGGUAAUAAGCUGACGGACAUGGUCCUAACCACGCAGCCAAGUCCUAAGUCAACAGAUCUUCUGUUGAUAUGGAUGCAGUUCACAGACUAAAUGUCGGUCGGGGAAGAUGUAUUCUUCUCAUAAGAUAUAGUCGGACCUCUCCUUAAUGGGAGCUAGCGGAUGAAGUGAUGCAACACUGGAGCCGCUGGGAACUAAUUUGUAUGCGAAAGUAUAUUGAUUAGUUUUGGAGUACUCGUGGUCG
Method in brief: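 A randomised library covering all eight P1ex-region intron nucleotides was built with the intron in the knt kanamycin-resistance gene on pET-22b(+) and held in E. coli BL21(DE3). Cells were grown overnight at 37°C or 30°C on LB agar, with or without 25 μg/mL kanamycin, plus 100 μg/mL carbenicillin, 50 μM IPTG and 0.2% rhamnose, and pooled colonies were amplicon-sequenced on an Illumina HiSeq 2500. DiMSum fitness is the error-weighted combination of wild-type-normalised replicate fold changes, kanamycin versus none.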

Sequence	self-splicing fitness (ln) (30 °C)	self-splicing fitness (ln) (37 °C)
GCGUAGCAAUAUUACGGCCG	-1.01 ± 0.16	0.509 ± 0.34
UGUCAGCAAUAUUACGAUAU	-1.6 ± 0.13	-0.448 ± 0.13
CGGUAGCAAUAUUACGCCGG	-1.45 ± 0.078	-0.573 ± 0.12
CAUCAGCAAUAUUACGACCG	-0.142 ± 0.086	0.366 ± 0.12
UGAUAGCAAUAUUACGCCUU	-3.11 ± 0.31	-1.32 ± 0.2
ACCGAGCAAUAUUACGCCCG	-2.05 ± 0.29	-1.28 ± 0.33
AACCAGCAAUAUUACGCCGU	-1.03 ± 0.079	0.182 ± 0.1
AUCCAGCAAUAUUACGUGAG	-0.052 ± 0.045	0.237 ± 0.073
AUAUAGCAAUAUUACGAAAC	-2.85 ± 0.29	-2.03 ± 0.34
GCCGAGCAAUAUUACGGGUC	-3.68 ± 0.16	-2.77 ± 0.11
ACAAAGCAAUAUUACGCAAU	-1.87 ± 0.078	-1.6 ± 0.092
CGGUAGCAAUAUUACGAAGG	-0.178 ± 0.15	0.565 ± 0.16
CUGGAGCAAUAUUACGGUGA	-2.75 ± 0.24	-3.22 ± 0.35
GCCGAGCAAUAUUACGCUUC	-2.53 ± 0.18	-1.65 ± 0.25
CAAGAGCAAUAUUACGCUUU	-3.3 ± 0.19	-2.58 ± 0.18
ACUUAGCAAUAUUACGAAAC	-3.64 ± 0.32	-1.65 ± 0.24
GGUGAGCAAUAUUACGAAAA	-2.57 ± 0.32	-2.66 ± 0.38
UCACAGCAAUAUUACGACUG	-2.18 ± 0.098	-0.964 ± 0.12
AAGAAGCAAUAUUACGGCGA	-0.584 ± 0.071	-0.285 ± 0.088
GAGAAGCAAUAUUACGCACA	-0.725 ± 0.19	0.27 ± 0.25
GCCUAGCAAUAUUACGCUGG	-2.92 ± 0.17	-3.83 ± 0.42
GGAGAGCAAUAUUACGUUCU	-3.27 ± 0.25	-3.5 ± 0.39
GCAGAGCAAUAUUACGAUGU	-4.4 ± 0.34	-2.42 ± 0.19
CCGGAGCAAUAUUACGCGAU	-3.82 ± 0.27	-2.62 ± 0.33

Sequence	self-splicing fitness (ln) (30 °C)	self-splicing fitness (ln) (37 °C)
AACUAGCAAUAUUACGCCAA	-2.83 ± 0.21	-1.63 ± 0.16
UCCGAGCAAUAUUACGUUAA	-2.36 ± 0.21	-2.57 ± 0.28
ACGUAGCAAUAUUACGACAU	-0.126 ± 0.012	0.0543 ± 0.032
AAUUAGCAAUAUUACGCUAA	-2.5 ± 0.28	-2.27 ± 0.24
GGAAAGCAAUAUUACGGAAU	-2.55 ± 0.16	-1.1 ± 0.15
AAGUAGCAAUAUUACGCGUG	-0.856 ± 0.067	-0.191 ± 0.092
CUGCAGCAAUAUUACGACUU	-2.66 ± 0.14	-2.25 ± 0.17
GUCUAGCAAUAUUACGUGAG	-0.175 ± 0.075	0.0626 ± 0.093
GAGCAGCAAUAUUACGCCGC	-1.63 ± 0.22	-2.43 ± 0.38
UAGCAGCAAUAUUACGGAGG	-3.29 ± 0.15	-2.6 ± 0.22
CAACAGCAAUAUUACGGUGA	-1.58 ± 0.071	-0.727 ± 0.084
CGACAGCAAUAUUACGAUCG	-3.43 ± 0.2	-2.11 ± 0.2
CGGCAGCAAUAUUACGGCUA	-0.121 ± 0.07	0.407 ± 0.096
GUUGAGCAAUAUUACGUGUG	-3.65 ± 0.34	-3.15 ± 0.32
AAGCAGCAAUAUUACGAAGU	-3.3 ± 0.13	-1.34 ± 0.13
ACGCAGCAAUAUUACGGACC	-1.95 ± 0.15	0.559 ± 0.18
ACGGAGCAAUAUUACGAAAG	-3.06 ± 0.31	–
UAAUAGCAAUAUUACGAGCA	-1.64 ± 0.16	-1.21 ± 0.16
UGUUAGCAAUAUUACGUUGC	-2.88 ± 0.24	-1.62 ± 0.26
AUUGAGCAAUAUUACGUCGA	-3.47 ± 0.31	-1.18 ± 0.25
ACGUAGCAAUAUUACGCGUC	-1.53 ± 0.22	-1.97 ± 0.35
AUGGAGCAAUAUUACGCACU	-0.628 ± 0.14	-0.159 ± 0.18
GGUGAGCAAUAUUACGUUGA	-2.7 ± 0.43	-1.05 ± 0.18
CCUCAGCAAUAUUACGAUUA	-2.62 ± 0.22	-2.23 ± 0.19

Sequence	self-splicing fitness (ln) (30 °C)	self-splicing fitness (ln) (37 °C)
CUCUAGCAAUAUUACGACCU	-2.94 ± 0.3	–
CAAAAGCAAUAUUACGUUCG	-0.43 ± 0.051	0.246 ± 0.066
GUCGAGCAAUAUUACGUAGG	-3.66 ± 0.18	-2.08 ± 0.16
CCACAGCAAUAUUACGGACU	-3.9 ± 0.15	-2.95 ± 0.14
CAUAAGCAAUAUUACGCCCU	-2.76 ± 0.43	-2.4 ± 0.49
CUUUAGCAAUAUUACGUCGC	–	-1.58 ± 0.34
AAGAAGCAAUAUUACGUAGA	-2.64 ± 0.13	-1.01 ± 0.11
CAUCAGCAAUAUUACGGACC	-3.04 ± 0.24	-0.899 ± 0.22
ACGUAGCAAUAUUACGGGGU	-4.31 ± 0.3	-2.51 ± 0.18
CACCAGCAAUAUUACGACAA	-2.61 ± 0.23	-2.73 ± 0.2
GCCCAGCAAUAUUACGUGUC	-0.887 ± 0.053	-0.349 ± 0.066
CCGAAGCAAUAUUACGGAUA	–	-1.18 ± 0.2
ACCGAGCAAUAUUACGGCGC	-1.24 ± 0.14	-0.396 ± 0.16
CCUAAGCAAUAUUACGUCAG	-1.58 ± 0.12	-0.812 ± 0.12
GCGUAGCAAUAUUACGUCGA	-2.69 ± 0.35	-1.85 ± 0.32
AGUGAGCAAUAUUACGUCUU	-1.07 ± 0.082	-1.31 ± 0.1
AUCGAGCAAUAUUACGUUUG	-4.29 ± 0.3	-2.05 ± 0.21
UUCCAGCAAUAUUACGGUUC	-2.81 ± 0.16	-1.99 ± 0.24
AAGCAGCAAUAUUACGGACA	-1.69 ± 0.16	0.0141 ± 0.11
CGGUAGCAAUAUUACGCCCC	-1.29 ± 0.24	-0.667 ± 0.29
GAACAGCAAUAUUACGUGAG	-0.394 ± 0.031	-0.235 ± 0.053
AGCCAGCAAUAUUACGCGCA	-0.445 ± 0.061	0.255 ± 0.074
CCUAAGCAAUAUUACGAGCA	-2.92 ± 0.3	-3.08 ± 0.35
GUGUAGCAAUAUUACGCGAA	-2.15 ± 0.17	-0.555 ± 0.14

Sequence	self-splicing fitness (ln) (30 °C)	self-splicing fitness (ln) (37 °C)
UCACAGCAAUAUUACGCUCG	-1.15 ± 0.086	0.16 ± 0.1
UCUGAGCAAUAUUACGCGGU	-2.71 ± 0.28	-2.5 ± 0.28
UCCAAGCAAUAUUACGGGGA	-2.58 ± 0.15	-1.27 ± 0.1
GUGUAGCAAUAUUACGCCGU	-1.25 ± 0.17	-1.67 ± 0.36
AAGCAGCAAUAUUACGAGCC	-3.37 ± 0.34	-1.2 ± 0.24
UCGGAGCAAUAUUACGUUAU	-3.36 ± 0.38	-2.11 ± 0.38
CGGUAGCAAUAUUACGGAAG	-0.936 ± 0.13	-0.67 ± 0.14
CUGCAGCAAUAUUACGACUC	-3.27 ± 0.26	-1.98 ± 0.27
CAUUAGCAAUAUUACGUUGA	-3.86 ± 0.37	-2.65 ± 0.34
GUAUAGCAAUAUUACGGAGU	-3.8 ± 0.3	-3.49 ± 0.29
GGCAAGCAAUAUUACGUCUG	-3.13 ± 0.18	-1.09 ± 0.094
GUAUAGCAAUAUUACGCACC	-1.85 ± 0.17	-1.66 ± 0.27
CCGGAGCAAUAUUACGGGUC	-3.5 ± 0.27	-2.77 ± 0.35
UGAGAGCAAUAUUACGAUGC	-2.13 ± 0.39	-0.477 ± 0.45
GUAGAGCAAUAUUACGUUGA	-2.98 ± 0.2	-0.879 ± 0.17
GAAGAGCAAUAUUACGAGAG	-2.3 ± 0.12	-3.22 ± 0.27
CCCCAGCAAUAUUACGUGAA	-4.42 ± 0.13	-2.44 ± 0.099
UAAUAGCAAUAUUACGACAU	-3.378 ± 0.025	-1.95 ± 0.036
CGCAAGCAAUAUUACGUGUA	-2.88 ± 0.13	-0.494 ± 0.1
CCCCAGCAAUAUUACGGCUU	-3.23 ± 0.21	-2.25 ± 0.23
UAAAAGCAAUAUUACGACGU	-0.791 ± 0.13	-0.527 ± 0.12
GUUCAGCAAUAUUACGACAU	-0.0137 ± 0.013	0.437 ± 0.033
CUCCAGCAAUAUUACGGCGA	-2.16 ± 0.22	-1.6 ± 0.2
GUCUAGCAAUAUUACGGUCU	-2.19 ± 0.17	-0.272 ± 0.16

Source: the supplement of paper PMC7877785
